# ± gives the standard deviation of the averaged measurements.
# Tested on: Saccharomyces cerevisiae
# Assay: protein stability index of tFT-peptide fusion (C-terminal peptide) (PSI (0-1 scale)); higher = more stable (slower turnover)
# Details: genetic background: cdc34-1; temperature: 37 C
# Method: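 MPS profiling in S. cerevisiae of the tFT-X12 degron library: putative degron peptides plus stable controls, 12 aa, fused to the C-terminus of a sfGFP-mCherry timer. Cells are FACS-sorted into 8 mCherry/sfGFP bins and deep-sequenced. PSI runs from 0 (unstable) to 1 (stable). Backgrounds are wild type, das1Δ and doa10Δ at 30 °C, and wild type, das1Δ, cdc34-1 and cdc53-1 at 37 °C; 2-3 technical replicates each.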
# 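Note: PSI is a weighted mean of sequencing reads over stability bins, variants kept only with over 10 reads, mCherry proximal and sfGFP distal, peptide attached via GGGS linker.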
row,Sequence,protein stability index
1,SWWGDVVWFVVC,0.555 ± 0.059
2,SYGNGIPIRMLH,0.656 ± 0.035
3,SYLPSHVYIFLL,0.275 ± 0.0049
4,TFLCSSLALAVI,0.455 ± 0.03
5,TGYRYVGRFFVV,0.653 ± 0.037
6,TLCFRLSWVLLV,0.0812 ± 0.028
7,TLNKDILIIKCA,0.382 ± 0.023
8,TNFVVRLRFVLF,0.534 ± 0.021
9,TVRVVMLRLLFT,0.452 ± 0.027
10,VAFLWVAFCFSG,0.205 ± 0.0023
11,VAIMSIWLVYML,0.349 ± 0.0086
12,VALAVRVVVCGA,0.0316 ± 0.014
13,VAWCVWCWWWAV,0.188 ± 0.0033
14,VCLFWLFLWRIL,0.208 ± 0.018
15,VCLWVEVLIVLG,0.0839 ± 0.023
16,VCPWGYCSEWGF,0.772 ± 0.047
17,VFCSVGVSLFFG,0.335 ± 0.014
18,VFFLFAVCSVLV,0.0858 ± 0.0079
19,VFFLRVHFWSFF,0.377 ± 0.01
20,VFFLVHFHLPMF,0.531 ± 0.053

row,Sequence,protein stability index
1,VFGFLVFYVCVR,0.0903 ± 0.036
2,VFHMFGWCGGAR,0.728 ± 0.015
3,VFLFSLCIRLSR,0.122 ± 0.065
4,VFLVFSVWVVYR,0.2 ± 0.0081
5,VFLVRTVTQISA,0.289 ± 0.02
6,VFRLFFLLVWLV,0.079 ± 0.016
7,VFRLLALLWRFF,0.606 ± 0.01
8,VFSLAFYLVLFF,0.326 ± 0.063
9,VFSRVLSVLLSA,0.493 ± 0.011
10,VFVGWVLCVVGG,0.04576 ± 0.00018
11,VFWLLVAVLRYW,0.224 ± 0.018
12,VGVSVVMVVEVP,0.0286 ± 0.0009
13,VGVVLWWVVLMV,0.118 ± 0.014
14,VGYHCIVGVIFL,0.467 ± 0.031
15,VIRFNSAPRFLV,0.614 ± 0.054
16,VIWIRMISFFVW,0.192 ± 0.035
17,VIYNSALLLVRL,0.273 ± 0.031
18,VLAFFPLFFFLS,0.434 ± 0.035
19,VLGARWHWIYIA,0.281 ± 0.071
20,VLGLYSLLLSFF,0.567 ± 0.068

row,Sequence,protein stability index
1,VLGRCWWIVSDL,0.736 ± 0.037
2,VLISLVLLFRCW,0.23 ± 0.015
3,VLLMFFFRFSAL,0.589 ± 0.053
4,VLVFYFCFSFCS,0.144 ± 0.013
5,VLVLSFLYRMVK,0.353 ± 0.065
6,VLVSYAIVILYL,0.128 ± 0.0017
7,VLVVLVVCRRAE,0.247 ± 0.039
8,VLYLQCITSAGH,0.1691 ± 0.00061
9,VMRMVWVLGVMC,0.281 ± 0.02
10,VPSMSIVWCRVL,0.383 ± 0.036
11,VPSPWVFSLFLH,0.594 ± 0.059
12,VQFISLVCLFRF,0.339 ± 0.048
13,VQWPLLVVGCMG,0.271 ± 0.016
14,VSFRISAIFVCV,0.232 ± 0.034
15,VSPATFLFYFFF,0.62 ± 0.022
16,VTFCFLFVWFLV,0.269 ± 0.004
17,VTGFGVAIVCVT,0.263 ± 0.021
18,VVFFFKFFLLRL,0.262 ± 0.0047
19,VVGLVSIVQVIM,0.43875 ± 0.0003
20,VVGRWGFVVECW,0.268 ± 0.014

# Same assay, conditions: genetic background: cdc53-1; temperature: 37 C
row,Sequence,protein stability index
1,SWWGDVVWFVVC,0.649 ± 0.015
2,SYGNGIPIRMLH,0.707 ± 0.026
3,SYLPSHVYIFLL,0.309 ± 0.02
4,TFLCSSLALAVI,0.509 ± 0.032
5,TGYRYVGRFFVV,0.723 ± 0.039
6,TLCFRLSWVLLV,0.15 ± 0.013
7,TLNKDILIIKCA,0.42 ± 0.036
8,TNFVVRLRFVLF,0.5485 ± 0.00062
9,TVRVVMLRLLFT,0.52 ± 0.025
10,VAFLWVAFCFSG,0.355 ± 0.044
11,VAIMSIWLVYML,0.465 ± 0.0057
12,VALAVRVVVCGA,0.0354 ± 0.0067
13,VAWCVWCWWWAV,0.322 ± 0.0061
14,VCLFWLFLWRIL,0.167 ± 0.027
15,VCLWVEVLIVLG,0.205 ± 0.056
16,VCPWGYCSEWGF,0.82244 ± 0.00034
17,VFCSVGVSLFFG,0.496 ± 0.027
18,VFFLFAVCSVLV,0.18 ± 0.0095
19,VFFLRVHFWSFF,0.487 ± 0.011
20,VFFLVHFHLPMF,0.57 ± 0.041

row,Sequence,protein stability index
1,VFGFLVFYVCVR,0.146 ± 0.021
2,VFHMFGWCGGAR,0.8 ± 0.0098
3,VFLFSLCIRLSR,0.214 ± 0.0052
4,VFLVFSVWVVYR,0.304 ± 0.00039
5,VFLVRTVTQISA,0.371 ± 0.033
6,VFRLFFLLVWLV,0.0744 ± 0.019
7,VFRLLALLWRFF,0.695 ± 0.018
8,VFSLAFYLVLFF,0.349 ± 0.0065
9,VFSRVLSVLLSA,0.514 ± 0.033
10,VFVGWVLCVVGG,0.161 ± 0.0032
11,VFWLLVAVLRYW,0.247 ± 0.0056
12,VGVSVVMVVEVP,0.0328 ± 0.00097
13,VGVVLWWVVLMV,0.181 ± 0.0027
14,VGYHCIVGVIFL,0.491 ± 0.041
15,VIRFNSAPRFLV,0.7214 ± 0.0026
16,VIWIRMISFFVW,0.283 ± 0.024
17,VIYNSALLLVRL,0.225 ± 0.01
18,VLAFFPLFFFLS,0.5049 ± 0.0042
19,VLGARWHWIYIA,0.526 ± 0.0082
20,VLGLYSLLLSFF,0.6627 ± 0.0015

row,Sequence,protein stability index
1,VLGRCWWIVSDL,0.782 ± 0.011
2,VLISLVLLFRCW,0.244 ± 0.038
3,VLLMFFFRFSAL,0.717 ± 0.014
4,VLVFYFCFSFCS,0.282 ± 0.043
5,VLVLSFLYRMVK,0.4364 ± 0.0007
6,VLVSYAIVILYL,0.141 ± 0.03
7,VLVVLVVCRRAE,0.412 ± 0.0043
8,VLYLQCITSAGH,0.203 ± 0.0061
9,VMRMVWVLGVMC,0.325 ± 0.047
10,VPSMSIVWCRVL,0.446 ± 0.0055
11,VPSPWVFSLFLH,0.689 ± 0.0095
12,VQFISLVCLFRF,0.361 ± 0.0089
13,VQWPLLVVGCMG,0.312 ± 0.04
14,VSFRISAIFVCV,0.293 ± 0.02
15,VSPATFLFYFFF,0.688 ± 0.011
16,VTFCFLFVWFLV,0.378 ± 0.018
17,VTGFGVAIVCVT,0.292 ± 0.0042
18,VVFFFKFFLLRL,0.224 ± 0.025
19,VVGLVSIVQVIM,0.488 ± 0.024
20,VVGRWGFVVECW,0.301 ± 0.024

# Reference: the supplement of paper PMC10724198
